Test results taken from IntAct's records for PubMed 25009770.

Columns and labels:
psmd9_human PSMD9 [1] = target: T1, psmd9_human PSMD9 (UniProt O00233)
T1 sequence: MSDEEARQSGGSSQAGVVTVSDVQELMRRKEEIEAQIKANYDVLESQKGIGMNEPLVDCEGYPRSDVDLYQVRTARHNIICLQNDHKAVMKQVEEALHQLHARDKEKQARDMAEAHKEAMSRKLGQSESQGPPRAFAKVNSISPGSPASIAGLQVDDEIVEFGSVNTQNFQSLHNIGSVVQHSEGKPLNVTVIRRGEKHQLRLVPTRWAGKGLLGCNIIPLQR

psmd9_human PSMD9 [2] = target: T1, psmd9_human PSMD9; remark: listed apart in the source

effect of a mutation on the interaction (psmd9_human PSMD9 [1]): disrupting interaction strength | effect of a mutation on the interaction (psmd9_human PSMD9 [2]): decreasing interaction strength
Substance: Small ribosomal subunit protein uS11 (Homo sapiens) (from UniProt P62263) L151G
